Experiments:
[1] = Dynamic light scattering (DLS) of DSG2 fusion polypeptides; assay type: physicochemical; conditions: for PDI: polymer distribution index
From the text: 6 candidates were compared to the reference sample.

[2] = Melting temperature Tm of DSG2 fusion polypeptides; assay type: physicochemical
From the text: As the temperature increased, the aggregates began to move, unfold and spread apart.

anti-DSG2 antibody [3] = experiment: Anti-DSG2 antibody Meso Scale Discovery (MSD) blocking assay, anti-DSG2 antibody controls; assay type: binding; conditions: for ability to bind to and block anti-DSG2 antibody: MSD assay; for % inhibition: fraction C
Method: (§1) The DSG2 fusion polypeptides were tested for the ability to block anti-DSG2 antibody by an anti-DSG2 antibody Meso Scale Discovery (MSD) assay. […] The DSG2 fusion polypeptides were subjected to size exclusion chromatography and different elution fractions were examined. […] As shown in Table 9 and FIG. 4B, FIG. 4C, and FIG. 4D, enriching for fraction C improved the ability of the DSG2 fusion polypeptides to block ARVC patient serum.

Anti-DSG2 antibody [4] = experiment: anti-DSG2 antibody MSD assay; fraction C; inhibition of the signal of anti-DSG2 antibody at 200 ng/mL (control)
Anti-DSG2 antibody [5] = experiment: anti-DSG2 antibody MSD assay; fraction C; inhibition of the signal of anti-DSG2 antibody at 1000 ng/mL (control)
Anti-DSG2 antibody [6] = experiment: electrochemical immunoassay; blocking of anti-DSG2 antibodies (500 ng/mL) binding to DSG2 extracellular domain; fusion polypeptide 5 mg/mL as printed
[7] = test system: ARVC serum (serum obtained from ARVC patients); experiment: Anti-DSG2 antibody Meso Scale Discovery (MSD) blocking assay, ARVC serum; assay type: binding, human; conditions: for % inhibition: fraction C; for effect of enriching for fraction C on ability to block ARVC patient serum: size exclusion fraction C vs whole preparation, FIG. 4B-4D
Method: as §1

[8] = sample: Anti-DSG2 antibody (200 ng/mL) control
[9] = sample: Anti-DSG2 antibody (1000 ng/mL) control

## DSG2FP#5: amino acids 104-330 of IgG1 (L234A, L235A, P329G; SEQ ID NO: 31); DSG2 extracellular domain (50-609 of SEQ ID NO: 1)
[1]
  Peak 1 mass %: ~99%
  Peak 1 mode diameter: 76.72 nm
  PDI: 0.31
[2]
  Tm1: 65.0 °C
anti-DSG2 antibody [3]
  ability to bind to and block anti-DSG2 antibody: able to bind to and block anti-DSG2 antibodies

## DSG2-(IgG1)Fc (Fc fusion)
Anti-DSG2 antibody [4]
  % inhibition: 54.5%
Anti-DSG2 antibody [5]
  % inhibition: 81.6%

## DSG2FP#6: DSG2 extracellular domain (50-609 of SEQ ID NO: 1); amino acids 99-327 of IgG4 (S228P, L235E, P329G) (SEQ ID NO: 32)
[1]
  Peak 1 mass %: ~99%
  Peak 1 mode diameter: 98.03 nm
  PDI: 0.32
[2]
  Tm1: 51.1 °C
  Tm2: 60.0 °C
anti-DSG2 antibody [3]
  ability to bind to and block anti-DSG2 antibody: able to bind to and block anti-DSG2 antibodies

## DSG2-(IgG4)Fc (Fc fusion)
Anti-DSG2 antibody [6]
  % inhibition: > 80%

## DSG2-GGGGS-(IgG4)Fc (Fc fusion)
Anti-DSG2 antibody [6]
  % inhibition: > 80%

## DSG2FP#7: DSG2 extracellular domain (50-609 of SEQ ID NO: 1); GGGGS peptide linker; IgG4 Fc (S228P, L235E, P329G) (SEQ ID NO: 32)
[1]
  Peak 1 mass %: ~97%
  Peak 1 mode diameter: 86.23 nm
  PDI: 0.30
[2]
  Tm1: 53.4 °C
  Tm2: 60.0 °C
anti-DSG2 antibody [3]
  ability to bind to and block anti-DSG2 antibody: able to bind to and block anti-DSG2 antibodies

## DSG2-GGGGS-(IgG1)Fc (Fc fusion)
Anti-DSG2 antibody [4]
  % inhibition: 61.2%
Anti-DSG2 antibody [5]
  % inhibition: 85.5%

## DSG2-EAAAK-(IgG1)Fc (Fc fusion)
Anti-DSG2 antibody [4]
  % inhibition: 61.2%
Anti-DSG2 antibody [5]
  % inhibition: 85.5%

B1: DSG2FP#3: DSG2 extracellular domain (50-609 of SEQ ID NO: 1); linker GGGGS; amino acids 104-330 of IgG1 (L234A, L235A, P329G) (protein)
chain: AWITAPVALREGEDLSKKNPIAKIHSDLAEERGLKITYKYTGKGITEPPFGIFVFNKDTGELNVTSILDREETPFFLLTGYALDARGNNVEKPLELRIKVLDINDNEPVFTQDVFVGSVEELSAAHTLVMKINATDADEPNTLNSKISYRIVSLEPAYPPVFYLNKDTGEIYTTSVTLDREEHSSYTLTVEARDGNGEVTDKPVKQAQVQIRILDVNDNIPVVENKVLEGMVEENQVNVEVTRIKVFDADEIGSDNWLANFTFASGNEGGYFHIETDAQTNEGIVTLIKEVDYEEMKNLDFSVIVANKAAFHKSIRSKYKPTPIPIKVKVKNVKEGIHFKSSVISIYVSESMDRSSKGQIIGNFQAFDEDTGLPAHARYVKLEDRDNWISVDSVTSEIKLAKLPDFESRYVQNGTYTVKIVAISEDYPRKTITGTVLINVEDINDNCPTLIEPVQTICHDAEYVNVTAEDLDGHPNSGPFSFSVIDKPPGMAEKWKIARQESTSVLLQQSEKKLGRSEIQFLISDNQGFSCPEKQVLTLTVCECLHGSGCREAQHDSYVGGGGGGSDKTHTCPPCPAPEAAGGPSVFLFPPKPKDTLMISRTPEVTCVVVDVSHEDPEVKFNWYVDGVEVHNAKTKPREEQYNSTYRVVSVLTVLHQDWLNGKEYKCKVSNKALGAPIEKTISKAKGQPREPQVYTLPPSRDELTKNQVSLTCLVKGFYPSDIAVEWESNGQPENNYKTTPPVLDSDGSFFLYSKLTVDKSRWQQGNVFSCSVMHEALHNHYTQKSLSLSPGK
[1]
  Peak 1 mass %: ~91%
  Peak 1 mode diameter: 43.23 nm
  PDI: 0.30
[2]
  Tm1: 51.3 °C
  Tm2: 62.8 °C
  Tm3: 82.1 °C
anti-DSG2 antibody [3]
  ability to bind to and block anti-DSG2 antibody: able to bind to and block anti-DSG2 antibodies
anti-DSG2 antibody [3]; [8]
  % inhibition: 61.2%
anti-DSG2 antibody [3]; [9]
  % inhibition: 85.5%
anti-DSG2 antibody [3]; sample: no antibody control
  % inhibition: 0.7%
[7]; sample: ARVC serum 1
  % inhibition: 9.2%
[7]; sample: ARVC serum 2
  % inhibition: 27.6%
[7]; sample: ARVC serum 3
  % inhibition: 15.5%
[7]; sample: ARVC serum 4
  % inhibition: −5.6%
[7]; sample: ARVC serum 5
  % inhibition: 20.6%
[7]
  effect of enriching for fraction C on ability to block ARVC patient serum: more pronounced

B2: DSG2FP#4: DSG2 extracellular domain (50-609 of SEQ ID NO: 1); linker EAAAK; amino acids 104-330 of IgG1 (L234A, L235A, P329G) (protein)
chain: AWITAPVALREGEDLSKKNPIAKIHSDLAEERGLKITYKYTGKGITEPPFGIFVFNKDTGELNVTSILDREETPFFLLTGYALDARGNNVEKPLELRIKVLDINDNEPVFTQDVFVGSVEELSAAHTLVMKINATDADEPNTLNSKISYRIVSLEPAYPPVFYLNKDTGEIYTTSVTLDREEHSSYTLTVEARDGNGEVTDKPVKQAQVQIRILDVNDNIPVVENKVLEGMVEENQVNVEVTRIKVFDADEIGSDNWLANFTFASGNEGGYFHIETDAQTNEGIVTLIKEVDYEEMKNLDFSVIVANKAAFHKSIRSKYKPTPIPIKVKVKNVKEGIHFKSSVISIYVSESMDRSSKGQIIGNFQAFDEDTGLPAHARYVKLEDRDNWISVDSVTSEIKLAKLPDFESRYVQNGTYTVKIVAISEDYPRKTITGTVLINVEDINDNCPTLIEPVQTICHDAEYVNVTAEDLDGHPNSGPFSFSVIDKPPGMAEKWKIARQESTSVLLQQSEKKLGRSEIQFLISDNQGFSCPEKQVLTLTVCECLHGSGCREAQHDSYVGEAAAKDKTHTCPPCPAPEAAGGPSVFLFPPKPKDTLMISRTPEVTCVVVDVSHEDPEVKFNWYVDGVEVHNAKTKPREEQYNSTYRVVSVLTVLHQDWLNGKEYKCKVSNKALGAPIEKTISKAKGQPREPQVYTLPPSRDELTKNQVSLTCLVKGFYPSDIAVEWESNGQPENNYKTTPPVLDSDGSFFLYSKLTVDKSRWQQGNVFSCSVMHEALHNHYTQKSLSLSPGK
[1]
  Peak 1 mass %: ~96%
  Peak 1 mode diameter: 44.87 nm
  PDI: 0.32
[2]
  Tm1: 50.7 °C
  Tm2: 63.1 °C
  Tm3: 81.5 °C
anti-DSG2 antibody [3]
  ability to bind to and block anti-DSG2 antibody: able to bind to and block anti-DSG2 antibodies
anti-DSG2 antibody [3]; [8]
  % inhibition: 61.2%
anti-DSG2 antibody [3]; [9]
  % inhibition: 85.5%
anti-DSG2 antibody [3]; sample: no antibody control
  % inhibition: 0.7%
[7]; sample: ARVC serum 1
  % inhibition: 6.0%
[7]; sample: ARVC serum 2
  % inhibition: 9.2%
[7]; sample: ARVC serum 3
  % inhibition: −8.0%
[7]; sample: ARVC serum 4
  % inhibition: 0.8%
[7]; sample: ARVC serum 5
  % inhibition: 2.0%

B3: DSG2FP#2: DSG2 extracellular domain (amino acids 50-609 of SEQ ID NO: 1); amino acids 104-330 of IgG1 (L234A, L235A, P329G) (SEQ ID NO: 31) (protein)
chain: AWITAPVALREGEDLSKKNPIAKIHSDLAEERGLKITYKYTGKGITEPPFGIFVFNKDTGELNVTSILDREETPFFLLTGYALDARGNNVEKPLELRIKVLDINDNEPVFTQDVFVGSVEELSAAHTLVMKINATDADEPNTLNSKISYRIVSLEPAYPPVFYLNKDTGEIYTTSVTLDREEHSSYTLTVEARDGNGEVTDKPVKQAQVQIRILDVNDNIPVVENKVLEGMVEENQVNVEVTRIKVFDADEIGSDNWLANFTFASGNEGGYFHIETDAQTNEGIVTLIKEVDYEEMKNLDFSVIVANKAAFHKSIRSKYKPTPIPIKVKVKNVKEGIHFKSSVISIYVSESMDRSSKGQIIGNFQAFDEDTGLPAHARYVKLEDRDNWISVDSVTSEIKLAKLPDFESRYVQNGTYTVKIVAISEDYPRKTITGTVLINVEDINDNCPTLIEPVQTICHDAEYVNVTAEDLDGHPNSGPFSFSVIDKPPGMAEKWKIARQESTSVLLQQSEKKLGRSEIQFLISDNQGFSCPEKQVLTLTVCECLHGSGCREAQHDSYVGDKTHTCPPCPAPEAAGGPSVFLFPPKPKDTLMISRTPEVTCVVVDVSHEDPEVKFNWYVDGVEVHNAKTKPREEQYNSTYRVVSVLTVLHQDWLNGKEYKCKVSNKALGAPIEKTISKAKGQPREPQVYTLPPSRDELTKNQVSLTCLVKGFYPSDIAVEWESNGQPENNYKTTPPVLDSDGSFFLYSKLTVDKSRWQQGNVFSCSVMHEALHNHYTQKSLSLSPGK
[1]
  Peak 1 mass %: ~96%
  Peak 1 mode diameter: 40.04 nm
  PDI: 0.32
[2]
  Tm1: 52.0 °C
  Tm2: 61.9 °C
  Tm3: 81.9 °C
anti-DSG2 antibody [3]
  ability to bind to and block anti-DSG2 antibody: able to bind to and block anti-DSG2 antibodies
anti-DSG2 antibody [3]; [8]
  % inhibition: 54.5%
anti-DSG2 antibody [3]; [9]
  % inhibition: 81.6%
anti-DSG2 antibody [3]; sample: no antibody control
  % inhibition: −19.1%
[7]; sample: ARVC serum 1
  % inhibition: 3.0%
[7]; sample: ARVC serum 2
  % inhibition: 33.5%
[7]; sample: ARVC serum 3
  % inhibition: 26.0%
[7]; sample: ARVC serum 4
  % inhibition: 51.1%
[7]; sample: ARVC serum 5
  % inhibition: 41.8%
[7]
  effect of enriching for fraction C on ability to block ARVC patient serum: more pronounced

— patent US20240043495A1, “DSG2 COMPOSITIONS AND METHODS FOR THE TREATMENT OF COVID-19” (priority 2020, published 2024)
